Assay results as given in patent publication US7267978, “Chimeric transcriptional regulatory element compositions and methods for increasing prostate-targeted gene expression” (The Regents of the University of California).

Experiments:
[1] = molecular target: Androgen receptor full length (fAR) (UniProt P10275); test: footprint; conditions: 60% protection at 14 nM; cooperative, within enhancer fragment
[2] = molecular target: Androgen receptor DNA-binding domain (ARDBD, aa 549-650) (Homo sapiens) (UniProt P10275); test: footprint; conditions: 75% occupancy at 1.4 uM
[3] = molecular target: T1, Androgen receptor DNA-binding domain (ARDBD, aa 549-650) (Homo sapiens, UniProt P10275 P10275:550-651); test: footprint; lower affinity than ARE III; conditions: tags: N-terminal His6, C-terminal heart muscle kinase site; E. coli; chain copies: 2
Protocol: The binding reactions for DNase I footprinting were as described previously (Chi et al., 1995). Indicated amounts of recombinant AR DNA binding domain (ARDBD), FLAG-tagged AR, and crude nuclear extracts from f-LNCaP cells were incubated in 13 μl of buffer containing 12.5 mM HEPES, pH 7.9, 12.5% glycerol, 5 mM MgCl_2, 70 mM KCl, 0.2 mM EDTA, 60 mM mercaptoethanol, 0.5 mg/ml bovine serum albumin, and 200 ng of poly(dG-dC). After 45 min at 30° C., DNase I was added to the reactions. The cleavage reactions were terminated after 1 min by addition of 100 μl of stop buffer containing 400 mM sodium acetate, pH 5.2, 0.2% SDS, 10 mM EDTA, 50 μg/ml yeast tRNA, and 100 μg/ml proteinase K. The mixtures were incubated at 50° C. for 15 min, extracted with phenol/chloroform, and the products precipitated with ethanol. Precipitates were dissolved in formamide loading buffer and analyzed on 8% polyacrylamide/urea sequencing gels. The cleavage ladders were visualized by exposure to XAR-5 film or by PhosphorImager analysis.
A ^32P-labeled PCR™ fragment from −4309 to −4011 of the enhancer was subjected to DNase I footprinting studies. […] A weak footprint was also noticed below site V that had not been detected with ARDBD in earlier experiments.

[4] = molecular target: T1, Androgen receptor DNA-binding domain …; test: affinity column; retained at 0.5 M KCl, eluted at 0.8 M KCl; conditions: tags: N-terminal His6, C-terminal heart muscle kinase site; E. coli; chain copies: 2; label: biotin
Protocol: The *Escherichia coli* strain BL21(DE3) was transformed with pET11dHis_6ARDBD. 0.1 liter of cells was grown to an $A600$ of 0.6 and induced with 0.5 mM isopropyl-1-thio-β-D-galactopyranoside and 10 μM ZnCl_2 for 3 h. After harvesting, cells were resuspended in 5 ml of Buffer A (20 mM HEPES, pH 7.9, 20% glycerol, 10 μM ZnCl_2, 0.5 mM phenylmethylsulfonyl fluoride) containing 0.1 M KCl and lysed by sonication. The supernatant was incubated with 1.5 ml of Ni-NTA-agarose (Qiagen) resin in batch, rocked gently for 30 min at 4° C., and then loaded on to a small Bio-Rad Econo-column. After successively washing the resin with 15 ml of Buffer A containing 0.1 M KCl, and 15 ml of Buffer A containing 0.1 M KCl and 20 mM imidazole, ARDBD was eluted with Buffer A containing 0.1 M KCl and 150 mM imidazole. […]

Chain of Androgen receptor full length (fAR) (P10275 whole entry, the tested form may be a part): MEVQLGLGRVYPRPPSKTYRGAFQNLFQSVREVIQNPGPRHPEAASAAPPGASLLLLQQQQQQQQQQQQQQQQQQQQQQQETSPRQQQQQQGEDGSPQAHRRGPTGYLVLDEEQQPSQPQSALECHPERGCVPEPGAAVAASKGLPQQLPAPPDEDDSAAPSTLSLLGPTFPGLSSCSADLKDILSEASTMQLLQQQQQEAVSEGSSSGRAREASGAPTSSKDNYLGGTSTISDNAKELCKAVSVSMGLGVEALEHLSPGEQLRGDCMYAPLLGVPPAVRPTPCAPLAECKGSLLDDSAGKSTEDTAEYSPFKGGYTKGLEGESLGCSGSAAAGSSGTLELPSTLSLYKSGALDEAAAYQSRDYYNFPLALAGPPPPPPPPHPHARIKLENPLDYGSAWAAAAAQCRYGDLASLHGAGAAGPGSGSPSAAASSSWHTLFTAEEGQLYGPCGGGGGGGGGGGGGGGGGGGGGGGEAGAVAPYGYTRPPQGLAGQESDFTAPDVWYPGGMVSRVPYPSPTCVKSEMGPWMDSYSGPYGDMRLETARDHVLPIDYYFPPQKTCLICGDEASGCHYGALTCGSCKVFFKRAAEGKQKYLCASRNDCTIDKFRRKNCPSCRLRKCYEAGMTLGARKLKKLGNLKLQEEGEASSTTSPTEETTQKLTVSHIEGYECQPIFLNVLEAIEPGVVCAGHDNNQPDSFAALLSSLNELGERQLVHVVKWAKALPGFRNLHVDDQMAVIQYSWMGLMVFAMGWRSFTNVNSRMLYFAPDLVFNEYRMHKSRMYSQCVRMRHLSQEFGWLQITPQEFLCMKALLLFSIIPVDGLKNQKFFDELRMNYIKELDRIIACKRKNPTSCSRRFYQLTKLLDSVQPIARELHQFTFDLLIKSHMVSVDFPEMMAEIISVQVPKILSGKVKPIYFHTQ
T1 sequence (P10275 550-651, one chain of several): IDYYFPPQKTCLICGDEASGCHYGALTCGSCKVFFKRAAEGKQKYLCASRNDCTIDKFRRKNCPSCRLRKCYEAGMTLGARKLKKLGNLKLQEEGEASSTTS
Chain of Androgen receptor DNA-binding domain (ARDBD, aa 549-650) (Homo sapiens) (P10275 550-651): as the sequence (P10275 550-651, one chain of several) above

Molecule: PSA enhancer ARE IV
- K half [1]: < 14 nM

Molecule: PSA enhancer ARE V
- K half [2]: < 1400 nM
- K half [1]: < 14 nM

B1: PSA enhancer ARE VI (dsDNA)
DNA 1: GGATGCTGTGCACAC
DNA 2: GTGTGCACAGCATCC
- binding result [3]: binds

B2: biotinylated ARE affinity oligonucleotide (dsDNA)
DNA 1: TTTCCTTGCAGTACAGCATGTTCTAGC
DNA 2: GCTAGAACATGCTGTACTGCAAGGAAA
- binding result [4]: binds
